Experimental findings from patent US20100092494A1 (BOARD OF TRUSTEES OF THE UNIVERSITY OF ILLINOIS, published 2010) are described below.

The data set “PFO-PAGE and immunoblot” concerns the molecule itself. As to the kind of experiment: PFO-PAGE and immunoblot.
For a further data set, the target named is T1, human basigin-2 (human, UniProt P35613 140-385).
T1 construct: Endogenous glycosylated protein of HESC uterine fibroblasts and CCL-2 (HeLa) cells, found in the membrane fraction; also called basigin isoform 2; 50 kDa basigin protein
T1 sequence: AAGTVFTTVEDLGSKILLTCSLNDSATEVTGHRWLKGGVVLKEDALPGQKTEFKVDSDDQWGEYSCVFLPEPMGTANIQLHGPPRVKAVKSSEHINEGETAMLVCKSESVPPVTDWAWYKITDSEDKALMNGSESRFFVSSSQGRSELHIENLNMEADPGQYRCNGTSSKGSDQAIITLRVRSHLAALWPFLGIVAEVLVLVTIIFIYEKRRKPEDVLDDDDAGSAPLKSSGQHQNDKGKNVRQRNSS
Briefly: Sulfo-SBED biotin label transfer on HESC and CCL-2 cells, basigin immunoprecipitation, neutravidin-HRP blot. How it is done:
Biotin label transfer from rBSG to CCL-2 cells (HeLa) was performed by treating cells with increasing concentrations of SEED-labeled rBSG (0, 0.05, 0.5, 5, and 50 μg/ml) for 10 minutes at 37° C. Following 5 minutes of UV light treatment, cells were washed twice with PBS and total cell lysates collected using IP buffer. Proteins from labeled cells were precipitated with either neutravidin beads (FIGS. 7A and 7B) or immunoprecipitated with the P2C2 mAb (FIGS. 7C and 7D). Precipitated proteins were resolved by 15% SDS-PAGE in duplicate, and immunoblotted with either Streptavidin-HRP (FIGS. 7A and 7C) or with the R&D Systems anti-hEMMPRIN pAb (FIGS. 7B and 7D). The Santa Cruz goat anti-rabbit (anti-mouse, anti-human depleted)-HRP secondary antibody used for this experiment was previously shown to not cross-react with the P2C2 mAb. The basigin-2 band is indicated with an arrowhead and the basigin-3/rBSG band is indicated with an arrow. This experiment was performed twice with similar results.
Immunoprecipitation and Immunoblot Analysis. Immunoprecipitation of basigin was performed using the monoclonal antibody P2C2. Ten to […] of antibody added to 1 mg soluble protein was incubated overnight at 4° C. with rocking, and immune complexes were collected on protein G SEPHAROSE beads for 4 hours at 4° C. Immunoprecipitated proteins were resolved by SDS-PAGE using standard methods. […]

B1: recombinant human basigin extracellular domain construct (rBSG) (ligand)
chain: WSHPQFEKAGTVFTTVEDLGSKILLTCSLNDSATEVTGHRWLKGGVVLKEDALPGQKTEFKVDSDDQWGEYSCVFLPEPMGTANIQLHGPPRVKAVKSSEHINEGETAMLVCKSESVPPVTDWAWYKITDSEDKALMNGSESRFFVSSSQGRSELHIENLNMEADPGQYRCNGTSSKGSDQAIITLRVRSHLHHHHHH
notes: also called recombinant basigin; soluble rBSG
With B1, the binding result in the data set “PFO-PAGE and immunoblot” is “binds”; with human basigin-2 it was “binds”.
